Laboratory results published in article PMC4232046 (2014).

Biological target: Aspergillus fumigatus core CCAAT-binding complex (HapB(230–299), HapC(40–137), HapE(47–164)) (Aspergillus fumigatus)
Experiment: SPR

B1: Aspergillus fumigatus HapX(24–158) (domain or fragment)
chain: SPSPGPGTPGSITSKEWVIPPRPKPGRKPATDTPPTKRKAQNRAAQRAFRERRAARVNELEEQIKKIEDEHEIHIAAFKEQITNLSREVEQCRSEMTWWRDRCHALEKEVSVERSAKEAIVKEFRSSLSDREAVR
  Kd: 35 nM
